These are literature values, as cited in paper PMC8688582.

As a reminder, the Kd is the free concentration of one partner at which half of the binding sites on the other are occupied at equilibrium, for simple one-to-one binding.

The data set concerns the target CD25 (Homo sapiens) (UniProt P01589). Kind of data set: ITC.
UniProt P01589, sequence (P01589 22-240): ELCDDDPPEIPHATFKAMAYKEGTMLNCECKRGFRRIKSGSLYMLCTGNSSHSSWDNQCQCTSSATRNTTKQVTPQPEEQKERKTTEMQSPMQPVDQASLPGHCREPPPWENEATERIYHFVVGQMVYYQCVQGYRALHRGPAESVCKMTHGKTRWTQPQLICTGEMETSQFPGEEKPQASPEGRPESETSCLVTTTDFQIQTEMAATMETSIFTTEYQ

Turning to IL-2 (from UniProt P60568), the Kd was 10 nM.
